From patent US20230257436A1 (published 2023) come the findings set out here.

Experiment [1] addresses T1, human prosaposin (PSAP) secreted from ARPE-19 cells stably transfected with human PSAP cDNA (human) (UniProt P07602).
T1 sequence: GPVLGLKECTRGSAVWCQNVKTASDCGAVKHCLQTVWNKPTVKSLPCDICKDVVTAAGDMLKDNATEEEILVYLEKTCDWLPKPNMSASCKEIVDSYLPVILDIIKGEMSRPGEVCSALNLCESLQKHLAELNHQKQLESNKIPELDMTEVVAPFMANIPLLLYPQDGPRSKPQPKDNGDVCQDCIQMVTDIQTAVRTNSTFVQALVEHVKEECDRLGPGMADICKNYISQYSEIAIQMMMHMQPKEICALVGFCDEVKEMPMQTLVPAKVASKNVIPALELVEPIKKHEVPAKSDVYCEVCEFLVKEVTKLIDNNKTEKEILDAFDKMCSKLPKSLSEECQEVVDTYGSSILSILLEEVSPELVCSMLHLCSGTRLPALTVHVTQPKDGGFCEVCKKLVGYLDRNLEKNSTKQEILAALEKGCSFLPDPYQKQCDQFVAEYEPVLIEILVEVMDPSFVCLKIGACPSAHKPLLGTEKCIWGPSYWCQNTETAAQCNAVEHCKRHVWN
The experiment in a line: western blot of purified PGRN/PSAP complexes. On the technique in general: Immunoblotting shows a protein as a band on a membrane.

Experiment [2] concerns the target T2, endogenous human progranulin (PGRN) in human plasma and CSF (human, UniProt P28799 18-593).
T2 sequence (looked up): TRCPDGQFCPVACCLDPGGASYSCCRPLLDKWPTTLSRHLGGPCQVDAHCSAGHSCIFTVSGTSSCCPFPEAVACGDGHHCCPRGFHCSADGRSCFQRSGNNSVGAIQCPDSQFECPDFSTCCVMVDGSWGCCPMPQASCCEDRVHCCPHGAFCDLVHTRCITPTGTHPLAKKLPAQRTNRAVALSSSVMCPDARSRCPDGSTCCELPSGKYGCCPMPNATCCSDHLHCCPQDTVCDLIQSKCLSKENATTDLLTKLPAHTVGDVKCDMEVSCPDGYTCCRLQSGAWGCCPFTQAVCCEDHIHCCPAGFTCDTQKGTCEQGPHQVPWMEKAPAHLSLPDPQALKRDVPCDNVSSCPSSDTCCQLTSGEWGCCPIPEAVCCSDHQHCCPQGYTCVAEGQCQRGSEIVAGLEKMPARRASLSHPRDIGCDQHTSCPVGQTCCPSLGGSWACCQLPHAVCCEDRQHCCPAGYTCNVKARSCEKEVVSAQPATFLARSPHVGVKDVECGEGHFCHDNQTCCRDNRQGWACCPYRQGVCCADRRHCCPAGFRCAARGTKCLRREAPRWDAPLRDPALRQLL
The experiment can be described thus: sandwich ELISA on human plasma and CSF. (In an ELISA, binding on a coated surface is turned into a signal by an enzyme label.)

Experiment [3] concerns the target T3, commercially available recombinant PGRN (R&D Systems; PGRN-His, cat no. 2420-PG) (UniProt P28799 18-593, limits assumed).
T3 construct: The assay is titled 'Human PGRN/PSAP Complex Assay'; not shown: His tag
T3 sequence (looked up): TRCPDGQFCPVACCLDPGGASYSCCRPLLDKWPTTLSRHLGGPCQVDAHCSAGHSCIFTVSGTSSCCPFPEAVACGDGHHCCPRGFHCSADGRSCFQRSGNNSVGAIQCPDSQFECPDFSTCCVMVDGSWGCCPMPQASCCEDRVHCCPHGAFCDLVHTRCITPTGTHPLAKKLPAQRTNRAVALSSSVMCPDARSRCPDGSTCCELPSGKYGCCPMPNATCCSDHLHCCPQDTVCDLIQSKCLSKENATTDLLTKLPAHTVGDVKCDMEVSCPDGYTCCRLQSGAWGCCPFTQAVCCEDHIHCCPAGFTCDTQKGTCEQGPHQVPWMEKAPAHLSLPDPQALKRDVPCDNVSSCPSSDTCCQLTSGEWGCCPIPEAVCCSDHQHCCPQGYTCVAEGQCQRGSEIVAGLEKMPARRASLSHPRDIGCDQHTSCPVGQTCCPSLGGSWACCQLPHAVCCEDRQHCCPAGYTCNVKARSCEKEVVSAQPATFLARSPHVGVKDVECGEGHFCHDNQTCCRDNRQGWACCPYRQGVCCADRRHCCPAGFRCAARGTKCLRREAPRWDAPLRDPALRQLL
The experiment can be described thus: mixing in vitro, western blot.

In the case of “human progranulin (PGRN) secreted from ARPE-19 cells stably transfected with the human progranulin gene (pT2.CAn.PGRN plasmid) (from UniProt P28799 18-593) (ligand)”, in experiment [1], the stoichiometry of PGRN and PSAP in the complex (PGRN:PSAP ratio) came to 1.

B1: endogenous human prosaposin (PSAP), as expressed by non-PSAP-transfected ARPE-19 derived cells and as present in human plasma and CSF (ligand, UniProt P07602 17-524, looked up)
chain: GPVLGLKECTRGSAVWCQNVKTASDCGAVKHCLQTVWNKPTVKSLPCDICKDVVTAAGDMLKDNATEEEILVYLEKTCDWLPKPNMSASCKEIVDSYLPVILDIIKGEMSRPGEVCSALNLCESLQKHLAELNHQKQLESNKIPELDMTEVVAPFMANIPLLLYPQDGPRSKPQPKDNGDVCQDCIQMVTDIQTAVRTNSTFVQALVEHVKEECDRLGPGMADICKNYISQYSEIAIQMMMHMQPKEICALVGFCDEVKEMPMQTLVPAKVASKNVIPALELVEPIKKHEVPAKSDVYCEVCEFLVKEVTKLIDNNKTEKEILDAFDKMCSKLPKSLSEECQEVVDTYGSSILSILLEEVSPELVCSMLHLCSGTRLPALTVHVTQPKDGGFCEVCKKLVGYLDRNLEKNSTKQEILAALEKGCSFLPDPYQKQCDQFVAEYEPVLIEILVEVMDPSFVCLKIGACPSAHKPLLGTEKCIWGPSYWCQNTETAAQCNAVEHCKRHVWN
Regarding B1, the binding result in experiment [2] was “binds”.

B2: human prosaposin (PSAP) secreted from ARPE-19 cells stably transfected with human PSAP cDNA (ligand)
chain: GPVLGLKECTRGSAVWCQNVKTASDCGAVKHCLQTVWNKPTVKSLPCDICKDVVTAAGDMLKDNATEEEILVYLEKTCDWLPKPNMSASCKEIVDSYLPVILDIIKGEMSRPGEVCSALNLCESLQKHLAELNHQKQLESNKIPELDMTEVVAPFMANIPLLLYPQDGPRSKPQPKDNGDVCQDCIQMVTDIQTAVRTNSTFVQALVEHVKEECDRLGPGMADICKNYISQYSEIAIQMMMHMQPKEICALVGFCDEVKEMPMQTLVPAKVASKNVIPALELVEPIKKHEVPAKSDVYCEVCEFLVKEVTKLIDNNKTEKEILDAFDKMCSKLPKSLSEECQEVVDTYGSSILSILLEEVSPELVCSMLHLCSGTRLPALTVHVTQPKDGGFCEVCKKLVGYLDRNLEKNSTKQEILAALEKGCSFLPDPYQKQCDQFVAEYEPVLIEILVEVMDPSFVCLKIGACPSAHKPLLGTEKCIWGPSYWCQNTETAAQCNAVEHCKRHVWN
notes: The protein was secreted into conditioned medium; no signal peptide limits are stated; also called ARPE-PSAP; PSAP (#7)
With B2, the binding result in experiment [3] is on record as “binds”.
